Measurements as given in patent US20220317121A1.

Experiments:
Assay in all cases: line blot with purified recombinant antigen
H8-CD2BP2[human] (human) = H8-CD2BP2[human] (human) (UniProt O95400)
[1] = molecular target: H8-TJP1[human](aa1-575) (human) (UniProt Q07157)
[2] = molecular target: NVL[human]-IF1-H6 (human) (UniProt O15381)
Chain of UniProt O15381 (O15381 other isoform, or with tags, fused parts or gaps limits assumed): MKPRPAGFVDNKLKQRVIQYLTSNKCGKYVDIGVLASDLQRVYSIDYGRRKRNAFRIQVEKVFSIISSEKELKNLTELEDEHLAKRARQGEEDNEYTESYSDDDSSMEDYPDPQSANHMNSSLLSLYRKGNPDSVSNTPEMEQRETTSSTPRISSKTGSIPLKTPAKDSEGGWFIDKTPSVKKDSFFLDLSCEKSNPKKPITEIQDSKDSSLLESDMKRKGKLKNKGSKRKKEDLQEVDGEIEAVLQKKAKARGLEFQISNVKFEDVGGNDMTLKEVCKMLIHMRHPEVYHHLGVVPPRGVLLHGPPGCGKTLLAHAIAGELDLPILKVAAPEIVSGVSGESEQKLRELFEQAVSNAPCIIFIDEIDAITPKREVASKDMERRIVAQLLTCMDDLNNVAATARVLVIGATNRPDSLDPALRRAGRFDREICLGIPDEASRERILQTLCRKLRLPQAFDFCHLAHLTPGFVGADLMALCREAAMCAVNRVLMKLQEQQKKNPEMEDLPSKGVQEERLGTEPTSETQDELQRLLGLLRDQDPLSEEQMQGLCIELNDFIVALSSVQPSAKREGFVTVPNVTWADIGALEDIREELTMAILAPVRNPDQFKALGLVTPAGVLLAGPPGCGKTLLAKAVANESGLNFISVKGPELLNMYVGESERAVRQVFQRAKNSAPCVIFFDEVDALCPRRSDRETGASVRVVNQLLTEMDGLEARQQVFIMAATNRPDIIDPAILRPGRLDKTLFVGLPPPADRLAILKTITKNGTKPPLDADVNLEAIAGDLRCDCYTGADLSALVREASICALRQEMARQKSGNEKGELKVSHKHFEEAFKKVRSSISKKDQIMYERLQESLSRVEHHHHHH

Chain of UniProt O95400 (O95400 other isoform, or with tags, fused parts or gaps limits assumed): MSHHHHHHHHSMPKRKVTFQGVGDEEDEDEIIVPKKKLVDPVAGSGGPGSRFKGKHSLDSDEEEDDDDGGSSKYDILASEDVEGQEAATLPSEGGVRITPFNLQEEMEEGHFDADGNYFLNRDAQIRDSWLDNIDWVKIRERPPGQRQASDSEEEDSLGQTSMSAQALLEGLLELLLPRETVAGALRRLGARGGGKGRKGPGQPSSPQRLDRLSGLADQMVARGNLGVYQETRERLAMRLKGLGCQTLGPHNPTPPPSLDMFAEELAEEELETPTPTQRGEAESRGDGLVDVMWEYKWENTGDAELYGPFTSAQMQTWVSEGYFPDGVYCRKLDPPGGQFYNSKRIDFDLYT
Chain of UniProt Q07157 (Q07157 other isoform, or with tags, fused parts or gaps limits assumed): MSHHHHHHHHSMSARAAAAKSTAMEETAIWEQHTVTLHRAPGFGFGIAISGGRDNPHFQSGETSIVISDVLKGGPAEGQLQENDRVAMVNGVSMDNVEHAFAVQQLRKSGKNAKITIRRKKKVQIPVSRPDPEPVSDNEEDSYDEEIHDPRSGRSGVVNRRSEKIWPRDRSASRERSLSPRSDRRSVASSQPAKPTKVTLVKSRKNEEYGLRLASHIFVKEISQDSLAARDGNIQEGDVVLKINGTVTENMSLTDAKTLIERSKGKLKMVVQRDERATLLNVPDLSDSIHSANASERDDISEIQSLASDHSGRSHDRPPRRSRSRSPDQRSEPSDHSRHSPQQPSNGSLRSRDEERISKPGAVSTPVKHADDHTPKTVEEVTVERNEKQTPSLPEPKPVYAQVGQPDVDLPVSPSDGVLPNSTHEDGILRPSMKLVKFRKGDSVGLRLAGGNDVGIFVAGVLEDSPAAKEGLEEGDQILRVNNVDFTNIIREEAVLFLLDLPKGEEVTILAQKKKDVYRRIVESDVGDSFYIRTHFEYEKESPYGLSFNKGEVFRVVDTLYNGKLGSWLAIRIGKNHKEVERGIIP

band intensity (H8-CD2BP2[human] (human)): 111 | band intensity [1]: 101 | band intensity [2]: 15
Substance: anti-His-tag-AP (monoclonal anti-His-AP antibody produced in mouse, A5588, Sigma-Aldrich)
